Five molecules from paper PMC6471057 can be followed below.

Read-outs that look alike come from different tables or passages of the source.

Assay [1] addresses HLA-E*01:01 on T2E cells (human | human (endogenous in T2)). In words: flow cytometry on cells; peptide stabilization on T2E cells (peptide 18 h at 37 °C), washed, without Brefeldin A; HLA-E surface level (mAb 3D12) at 0, 2, 4 and 6 h at 37 °C.
For assay [2] the target is unchanged. The experiment in a line: flow cytometry on cells; peptide stabilization on T2E cells (peptide 18 h at 37 °C), then 1 h with Brefeldin A 10 µg/mL, washed; HLA-E surface level (mAb 3D12) at 0, 2, 4 and 6 h at 37 °C; decrease taken as dissociation of the peptide from HLA-E. On the technique in general: Flow cytometry measures light scatter and fluorescence of single cells or particles in a stream.

Assay [3] shares this target. The assay is described as above. The source holds these as a separate data set.

B1: VIL9 peptide (peptide)
peptide: VMAPRTLIL
Take B1: the DT50 (without Brefeldin A) in assay [1] is greater than 6 h. Moreover, in assay [2], the reduction in HLA-E surface expression after 6 h came out at 23%. Besides, the DT50 (incubation time for 50% of the p:HLA-E complexes to decay, with Brefeldin A) in assay [3] was greater than 6 h.

B2: LEL15 peptide (peptide)
peptide: LGHPDTLNQGEFKEL
Molecule B2 yielded a DT50 (without Brefeldin A) in assay [1] greater than 6 h. Further, the DT50 (incubation time for 50% of the p:HLA-E complexes to decay, with Brefeldin A) in assay [3] is greater than 6 h.

B3: SY10 peptide (peptide)
peptide: SKGKIYPVGY
Take B3: the DT50 (without Brefeldin A) in assay [1] was greater than 6 h. For the same molecule, the DT50 (incubation time for 50% of the p:HLA-E complexes to decay, with Brefeldin A) in assay [3] was greater than 6 h.

B4: LNL15 peptide (peptide)
peptide: LVDSGAQVSVVHPNL
As to B4, the DT50 (without Brefeldin A) in assay [1] was greater than 6 h. The DT50 (incubation time for 50% of the p:HLA-E complexes to decay, with Brefeldin A) in assay [2] was less than 6 h; in assay [3], greater than 4 h.

B5: DQ13 peptide (peptide)
peptide: DVHDGKVVSTHEQ
For the molecule B5, the DT50 (without Brefeldin A) in assay [1] is greater than 6 h. The molecule also returned a reduction in HLA-E surface expression after 6 h in assay [2] of 1.5%. In addition, in assay [3], the DT50 (incubation time for 50% of the p:HLA-E complexes to decay, with Brefeldin A) is greater than 6 h.
